Assays:
[1] = system: c-Src; assay: phosphorylation enrichment, bacterial display (enrichment ratio); higher = better substrate or ligand; peptides without Tyr show the background
[2] = molecular target: FGFR3 (UniProt P22607); assay: as above
[3] = system: c-Abl (mouse); assay: as above
[4] = molecular target: Fes (UniProt P07332); assay: as above
[5] = molecular target: EPHB1 (UniProt P54762); assay: as above
[6] = molecular target: Fyn (UniProt P06241); assay: as above
[7] = molecular target: Jak2 (UniProt O60674); assay: as above
[8] = molecular target: MERTK (UniProt Q12866); assay: as above
Sequence of MERTK (Q12866 whole entry, looked up): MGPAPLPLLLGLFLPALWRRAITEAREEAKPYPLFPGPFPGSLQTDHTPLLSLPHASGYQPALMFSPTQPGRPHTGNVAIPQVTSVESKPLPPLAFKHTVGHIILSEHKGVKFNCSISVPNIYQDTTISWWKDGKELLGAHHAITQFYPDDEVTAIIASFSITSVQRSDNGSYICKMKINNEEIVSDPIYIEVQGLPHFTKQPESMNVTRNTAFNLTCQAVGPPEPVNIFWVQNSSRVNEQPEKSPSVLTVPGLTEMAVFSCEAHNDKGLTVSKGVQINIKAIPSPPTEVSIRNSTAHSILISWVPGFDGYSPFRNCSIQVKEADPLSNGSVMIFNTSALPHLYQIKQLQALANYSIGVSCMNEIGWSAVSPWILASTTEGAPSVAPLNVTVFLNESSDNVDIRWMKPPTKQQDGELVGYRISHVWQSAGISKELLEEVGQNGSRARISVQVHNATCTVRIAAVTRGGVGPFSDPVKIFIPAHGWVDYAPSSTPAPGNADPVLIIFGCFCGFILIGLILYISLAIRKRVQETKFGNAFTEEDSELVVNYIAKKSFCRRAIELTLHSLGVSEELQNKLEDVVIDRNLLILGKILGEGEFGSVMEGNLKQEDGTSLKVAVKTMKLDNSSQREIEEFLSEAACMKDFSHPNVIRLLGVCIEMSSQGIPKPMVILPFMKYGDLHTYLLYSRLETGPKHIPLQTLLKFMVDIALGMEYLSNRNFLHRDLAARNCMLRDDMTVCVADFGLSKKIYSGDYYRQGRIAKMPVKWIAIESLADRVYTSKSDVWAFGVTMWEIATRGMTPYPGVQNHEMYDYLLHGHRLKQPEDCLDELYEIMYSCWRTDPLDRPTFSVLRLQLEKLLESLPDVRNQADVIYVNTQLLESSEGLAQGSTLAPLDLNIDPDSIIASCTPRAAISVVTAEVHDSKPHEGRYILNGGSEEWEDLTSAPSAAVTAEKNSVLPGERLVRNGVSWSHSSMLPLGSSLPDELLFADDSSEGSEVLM

[9] = molecular target: FGFR1 (UniProt P11362); assay: as above
[10] = system: AncSZ; assay: as above
[11] = molecular target: EPHB2 (UniProt P29323); assay: as above
Sequence of EPHB2 (P29323 whole entry, looked up): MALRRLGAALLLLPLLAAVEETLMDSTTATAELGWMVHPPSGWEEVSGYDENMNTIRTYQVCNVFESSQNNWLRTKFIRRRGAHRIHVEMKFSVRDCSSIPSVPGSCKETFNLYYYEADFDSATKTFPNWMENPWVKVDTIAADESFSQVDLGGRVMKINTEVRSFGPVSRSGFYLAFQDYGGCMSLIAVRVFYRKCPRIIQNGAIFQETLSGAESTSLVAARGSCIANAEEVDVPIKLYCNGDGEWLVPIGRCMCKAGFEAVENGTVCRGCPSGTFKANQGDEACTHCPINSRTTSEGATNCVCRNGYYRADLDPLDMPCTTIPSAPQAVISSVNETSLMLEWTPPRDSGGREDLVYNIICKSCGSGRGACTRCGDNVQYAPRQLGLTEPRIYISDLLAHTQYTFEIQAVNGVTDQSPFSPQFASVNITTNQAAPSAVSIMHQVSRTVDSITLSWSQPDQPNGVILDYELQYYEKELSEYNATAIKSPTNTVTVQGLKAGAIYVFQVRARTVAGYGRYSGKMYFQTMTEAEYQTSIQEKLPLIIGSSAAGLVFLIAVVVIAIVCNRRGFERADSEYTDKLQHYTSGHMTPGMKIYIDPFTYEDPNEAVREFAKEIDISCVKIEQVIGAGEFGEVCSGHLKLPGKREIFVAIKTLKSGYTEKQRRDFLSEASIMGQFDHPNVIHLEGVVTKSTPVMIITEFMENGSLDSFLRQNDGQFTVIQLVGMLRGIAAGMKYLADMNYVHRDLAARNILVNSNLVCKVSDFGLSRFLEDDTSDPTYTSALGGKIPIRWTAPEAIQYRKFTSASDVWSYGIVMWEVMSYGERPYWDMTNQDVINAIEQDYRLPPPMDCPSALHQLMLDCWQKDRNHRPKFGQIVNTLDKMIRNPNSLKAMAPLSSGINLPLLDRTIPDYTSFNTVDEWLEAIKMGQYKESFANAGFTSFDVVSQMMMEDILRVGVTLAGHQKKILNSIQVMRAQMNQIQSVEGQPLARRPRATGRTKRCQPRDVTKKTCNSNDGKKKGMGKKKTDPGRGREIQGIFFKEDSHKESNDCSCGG

[12] = molecular target: Hck (UniProt P08631); assay: as above
Sequence of Hck (P08631 whole entry, looked up): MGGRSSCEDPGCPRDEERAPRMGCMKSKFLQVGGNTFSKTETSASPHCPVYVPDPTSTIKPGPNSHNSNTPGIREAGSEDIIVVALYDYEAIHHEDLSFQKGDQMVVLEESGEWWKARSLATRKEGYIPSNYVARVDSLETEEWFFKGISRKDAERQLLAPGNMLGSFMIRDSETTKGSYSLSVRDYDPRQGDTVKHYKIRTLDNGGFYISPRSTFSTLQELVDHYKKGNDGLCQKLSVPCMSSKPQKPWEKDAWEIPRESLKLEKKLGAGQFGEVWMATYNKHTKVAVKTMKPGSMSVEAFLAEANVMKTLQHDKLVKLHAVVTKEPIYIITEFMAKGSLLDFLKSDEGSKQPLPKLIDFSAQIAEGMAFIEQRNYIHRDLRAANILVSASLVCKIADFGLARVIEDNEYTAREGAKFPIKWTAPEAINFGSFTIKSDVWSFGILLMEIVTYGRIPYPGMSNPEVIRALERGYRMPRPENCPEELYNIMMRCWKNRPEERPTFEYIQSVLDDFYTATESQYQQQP

[13] = system: Fer (mouse); assay: as above
[14] = molecular target: Grb2 SH2 (UniProt P62993); assay: SH2 binding enrichment of the phosphorylated peptide, bacterial display (enrichment ratio); higher = better substrate or ligand; peptides without Tyr show the background
[15] = molecular target: c-Src SH2; assay: as above
[16] = molecular target: SHP2-C SH2; assay: as above
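Wherever SH2 binding enrichment of the phosphorylated peptide, bacterial display is given: peptide library displayed on the E. coli surface as eCPX fusions, selected cells deep-sequenced, score is each peptide's frequency after selection divided by its frequency in the input.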
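Wherever phosphorylation enrichment, bacterial display is given: 11-residue human phosphosite peptides and single-mutation variants displayed on the E. coli surface, counted by deep sequencing, each peptide's frequency after selection divided by its frequency in the unselected input library; frequency after pTyr selection over input frequency; kinase dosed for 20-30% of maximal phosphorylation in three min.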

Sequence of Fyn (P06241 whole entry, looked up): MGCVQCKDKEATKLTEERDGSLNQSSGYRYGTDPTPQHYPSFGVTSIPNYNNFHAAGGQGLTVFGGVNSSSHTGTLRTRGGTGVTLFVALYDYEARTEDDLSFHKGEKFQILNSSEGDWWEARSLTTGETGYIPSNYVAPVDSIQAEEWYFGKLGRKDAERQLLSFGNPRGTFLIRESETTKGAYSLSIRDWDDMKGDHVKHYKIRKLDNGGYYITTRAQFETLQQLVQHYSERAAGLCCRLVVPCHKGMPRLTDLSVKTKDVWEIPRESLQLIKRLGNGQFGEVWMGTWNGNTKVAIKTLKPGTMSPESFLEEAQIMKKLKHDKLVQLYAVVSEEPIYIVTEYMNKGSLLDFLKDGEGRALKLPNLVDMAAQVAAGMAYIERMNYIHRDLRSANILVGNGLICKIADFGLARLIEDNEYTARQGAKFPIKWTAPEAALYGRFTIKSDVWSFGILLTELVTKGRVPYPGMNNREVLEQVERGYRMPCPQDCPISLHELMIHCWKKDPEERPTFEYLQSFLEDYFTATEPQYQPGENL
Sequence of FGFR3 (P22607 whole entry, looked up): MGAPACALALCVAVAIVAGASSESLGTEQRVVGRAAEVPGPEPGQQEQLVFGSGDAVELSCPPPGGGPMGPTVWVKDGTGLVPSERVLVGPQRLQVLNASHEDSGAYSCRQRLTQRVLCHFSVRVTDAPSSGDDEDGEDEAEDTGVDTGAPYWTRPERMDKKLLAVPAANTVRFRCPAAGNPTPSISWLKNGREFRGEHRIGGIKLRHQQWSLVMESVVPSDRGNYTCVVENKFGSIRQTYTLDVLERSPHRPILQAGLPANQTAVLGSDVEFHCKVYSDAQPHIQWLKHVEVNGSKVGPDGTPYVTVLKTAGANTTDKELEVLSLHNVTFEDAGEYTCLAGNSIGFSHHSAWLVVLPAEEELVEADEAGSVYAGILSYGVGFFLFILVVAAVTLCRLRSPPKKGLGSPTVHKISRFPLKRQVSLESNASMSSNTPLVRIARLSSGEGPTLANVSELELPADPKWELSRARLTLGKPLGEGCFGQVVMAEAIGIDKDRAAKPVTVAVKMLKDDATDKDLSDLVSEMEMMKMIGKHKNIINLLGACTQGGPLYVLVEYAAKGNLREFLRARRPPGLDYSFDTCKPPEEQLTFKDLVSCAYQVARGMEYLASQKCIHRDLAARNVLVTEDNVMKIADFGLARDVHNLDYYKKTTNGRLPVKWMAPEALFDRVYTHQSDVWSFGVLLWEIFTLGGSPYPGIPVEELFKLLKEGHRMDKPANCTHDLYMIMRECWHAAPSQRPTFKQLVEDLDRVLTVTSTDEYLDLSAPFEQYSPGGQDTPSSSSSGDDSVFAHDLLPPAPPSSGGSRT
Sequence of Fes (P07332 whole entry, looked up): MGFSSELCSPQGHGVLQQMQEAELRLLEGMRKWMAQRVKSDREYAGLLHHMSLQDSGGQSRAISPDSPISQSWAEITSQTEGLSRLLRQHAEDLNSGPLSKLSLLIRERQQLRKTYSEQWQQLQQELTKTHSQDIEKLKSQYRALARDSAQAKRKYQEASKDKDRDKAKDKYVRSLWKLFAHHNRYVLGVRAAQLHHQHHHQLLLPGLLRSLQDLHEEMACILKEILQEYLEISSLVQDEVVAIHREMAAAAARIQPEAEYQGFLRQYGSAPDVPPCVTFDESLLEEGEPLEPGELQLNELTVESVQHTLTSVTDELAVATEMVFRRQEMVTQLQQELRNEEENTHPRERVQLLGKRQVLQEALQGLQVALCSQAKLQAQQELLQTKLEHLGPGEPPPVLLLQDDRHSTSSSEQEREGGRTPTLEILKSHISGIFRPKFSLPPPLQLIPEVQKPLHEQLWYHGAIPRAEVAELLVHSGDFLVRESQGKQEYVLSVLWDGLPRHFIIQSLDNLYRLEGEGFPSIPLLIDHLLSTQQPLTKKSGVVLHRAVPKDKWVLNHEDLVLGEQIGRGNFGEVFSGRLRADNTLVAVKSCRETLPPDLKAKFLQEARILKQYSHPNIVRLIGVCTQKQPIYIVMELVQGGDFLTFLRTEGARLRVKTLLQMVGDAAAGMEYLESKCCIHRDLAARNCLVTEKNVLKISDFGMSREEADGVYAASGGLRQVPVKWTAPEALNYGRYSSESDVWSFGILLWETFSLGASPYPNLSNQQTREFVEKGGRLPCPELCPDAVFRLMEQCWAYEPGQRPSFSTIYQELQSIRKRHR

SH2 binding enrichment [14]	SH2 binding enrichment [15]	SH2 binding enrichment [16]	Sequence	phosphorylation enrichment [1]	phosphorylation enrichment [2]	phosphorylation enrichment [3]	phosphorylation enrichment [4]	phosphorylation enrichment [5]	phosphorylation enrichment [6]	phosphorylation enrichment [7]	phosphorylation enrichment [8]	phosphorylation enrichment [9]	phosphorylation enrichment [10]	phosphorylation enrichment [11]	phosphorylation enrichment [12]	phosphorylation enrichment [13]
0.786	0.421	0.54	AESPEHVHMFT [FAM111A_Y511_Y511H_YF]	0.36	0.614	0.661	1.01	0.566	0.446	0.754	0.416	0.433	0.746	0.569	0.447	0.431
0.776	0.515	0.548	MFQVQYNSSVD [LRFN1_Y458_YF]	0.373	0.581	0.566	0.86	0.486	0.394	0.771	0.398	0.425	0.859	0.432	0.436	0.514
0.82	0.645	0.57	PDKRIYQFTAA [SKAP2_Y197]	0.729	0.497	0.47	0.708	0.779	0.566	0.651	0.999	0.476	0.73	0.553	0.578	0.769
1.01	0.481	0.861	RSAGKDDVFLI [MECP2_Y120_Y120D_YF]	0.601	0.894	0.872	1.16	0.646	0.557	0.706	0.494	0.629	0.842	0.75	0.683	0.511
0.657	0.414	0.818	RRVLVYVGRGA [QDPR_Y16_G17V]	0.788	0.648	0.798	0.799	0.63	0.716	1.03	0.762	0.797	1.1	0.858	0.506	0.85
0.734	0.395	0.466	HDKEFYSVHNK [MET_Y1235_Y1230H_YF]	0.429	0.549	0.309	0.842	0.455	0.646	0.513	0.467	0.804	1.14	0.643	1.03	0.629
0.744	0.412	0.424	MDQAEYQAKIQ [DHX58_Y518_R523Q]	0.556	0.685	0.726	1.05	0.563	0.464	0.743	0.519	0.625	0.99	0.7	0.555	0.864
1.2	0.725	1.35	LVVFEYMRHGD [NTRK1_Y591_M587V]	0.374	0.625	0.476	1.03	0.577	0.46	0.761	0.392	0.486	0.875	0.556	0.475	0.456
0.513	0.797	0.48	TEALYYTDDPA [ADPRS_Y75_T79P]	2.59	5.62	1.09	1.82	1.2	1.91	1.06	6.2	5.2	1.97	0.882	1.79	1.92
0.761	0.421	0.547	NTDETYSIDNE [TUBB2B_Y200_C201S]	0.726	0.715	0.886	1.35	0.622	0.696	1.23	0.5	0.551	1.27	0.632	0.694	0.63
1.02	0.414	0.532	VRQQDYKKVEE [HADHA_Y283_V282D]	0.43	0.442	0.423	0.604	0.517	0.417	0.564	0.419	0.514	0.783	0.561	0.482	0.376
0.879	1.58	2.55	YAFQLYDLDRD [CHP2_Y123]	3.19	1.55	0.768	1.17	1.69	2.66	0.969	2.83	1.89	1.24	0.765	1.73	1.12
1.18	0.488	0.627	ERPIRYLNHQL [CEP152_Y268_Q265P]	0.46	0.424	0.552	0.591	0.421	0.457	0.476	0.497	0.383	0.504	0.409	0.393	0.417
0.871	0.567	0.845	NKEAIYSGYIR [SMCHD1_Y283]	7.96	0.526	24.3	0.687	5.4	11.3	0.571	9.45	0.565	0.724	11.2	10.4	3.43
0.882	7.24	0.595	FRGFSYDDIPD [TMEM230_Y112_YF]	0.485	0.737	0.895	1.44	0.739	0.438	1.39	0.565	0.474	1.35	0.71	0.609	0.405
1.27	0.814	1.5	YKPGFYNLKEK [LAMA1_Y490_C485Y]	0.491	0.402	0.971	0.628	0.343	0.421	0.891	0.366	0.352	0.659	0.431	0.397	0.432
0.67	0.355	0.609	MLEVSYVDRNS [F10_Y384_P383S]	0.466	0.519	0.554	0.758	0.48	0.375	0.876	0.37	0.441	0.651	0.528	0.437	0.439

SH2 binding enrichment [14]	SH2 binding enrichment [15]	SH2 binding enrichment [16]	Sequence	phosphorylation enrichment [1]	phosphorylation enrichment [2]	phosphorylation enrichment [3]	phosphorylation enrichment [4]	phosphorylation enrichment [5]	phosphorylation enrichment [6]	phosphorylation enrichment [7]	phosphorylation enrichment [8]	phosphorylation enrichment [9]	phosphorylation enrichment [10]	phosphorylation enrichment [11]	phosphorylation enrichment [12]	phosphorylation enrichment [13]
0.786	0.452	0.729	PQGVRYTFTID [DCX_Y103_I104T_YF]	0.529	1.36	1.55	1.66	0.768	0.7	1.48	0.356	0.521	1.41	1.04	0.642	0.796
1.12	0.591	0.715	TIMTNYNPNYC [ALK_Y1092_D1091N]	0.45	0.549	0.558	0.901	0.619	0.565	0.639	0.407	0.545	0.758	0.5	0.548	0.46
1.38	1.19	1.48	KGPNVCKKTVN [REV3L_Y1156_Y1156C]	0.54	0.741	1.13	0.863	0.457	0.378	0.944	0.415	0.529	0.644	0.525	0.516	0.376
0.77	0.443	0.694	FADIAYNFRQG [PAH_Y166_H170Q_YF]	0.5	0.601	0.665	0.86	0.47	0.425	0.701	0.41	0.398	0.772	0.486	0.505	0.35
4.68	1.84	0.613	LYSNAYLNDLA [ALDH1A1_Y119]	1.1	0.776	0.396	0.914	0.853	1.19	0.667	5.82	0.484	0.831	0.685	1.45	4.03
1.02	1.05	0.733	PVQAAYQKVEA [HBB_Y131_V135E]	0.587	0.525	0.879	0.887	0.54	0.597	1.16	0.604	0.709	0.921	0.559	0.653	0.676
0.809	0.623	0.718	RPLVVYPWTQR [HBB_Y36_L32P]	0.446	0.45	0.509	0.748	1.11	0.468	0.445	0.389	0.473	0.728	0.695	0.407	0.358
0.841	0.995	1.39	HNLDFYKETTN [FGFR3_Y648_K650E_YF]	1.14	0.915	1.14	1.5	0.891	0.731	1.48	0.662	0.645	1.23	0.496	0.53	0.656
0.878	0.535	0.52	GLIPAYHWVIM [NMNAT1_Y64_R66W]	0.526	6.04	0.92	1.25	0.755	0.503	1.68	1.8	8.56	1.49	0.731	0.543	5.52
0.944	0.485	0.701	RIVEIYSRSLQ [GCH1_Y175_R178S]	1.28	1.67	1.07	1.95	1.03	1.52	0.895	1.17	0.753	1.43	0.985	2.61	0.87
0.897	0.618	0.687	SHLSAYPALEG [CD5_Y465]	0.343	0.411	0.531	0.591	0.351	0.375	0.483	0.324	0.404	0.611	0.398	0.372	0.409
1.23	0.951	1.01	HFPFQCHRQLF [F12_Y53_Y53C_YF]	0.692	1.4	1.09	1.64	0.875	0.535	1.1	0.885	0.745	1.76	0.758	1.07	0.587
0.986	0.426	0.692	RRNEIYEIKVD [LGR5_Y387_H383R]	4.83	0.771	0.574	1.36	0.751	5.59	0.669	0.468	0.923	1.09	1.4	5.36	0.757
1.74	2.39	4.01	YQCKHYACIRQ [TIMP3_Y182_S179C]	0.362	0.455	0.514	0.662	0.371	0.347	0.55	0.46	0.336	0.601	0.363	0.275	0.399
1.52	4.85	6.45	CTTIHYTYMCN [TP53_Y234_N235T]	0.549	0.704	0.672	1.07	0.608	0.496	1.04	0.517	0.724	1.08	0.761	0.524	0.591
0.88	0.472	0.653	SVIKEYQIRQV [USH2A_Y3623_G3618S]	0.381	0.509	0.409	0.68	0.505	0.352	0.567	0.328	0.377	0.648	0.346	0.443	0.415
